# T1: recombinant mouse HEXB (beta-subunit of beta-hexosaminidase) (mouse, UniProt P20060 32-536)
# T1 sequence (looked up): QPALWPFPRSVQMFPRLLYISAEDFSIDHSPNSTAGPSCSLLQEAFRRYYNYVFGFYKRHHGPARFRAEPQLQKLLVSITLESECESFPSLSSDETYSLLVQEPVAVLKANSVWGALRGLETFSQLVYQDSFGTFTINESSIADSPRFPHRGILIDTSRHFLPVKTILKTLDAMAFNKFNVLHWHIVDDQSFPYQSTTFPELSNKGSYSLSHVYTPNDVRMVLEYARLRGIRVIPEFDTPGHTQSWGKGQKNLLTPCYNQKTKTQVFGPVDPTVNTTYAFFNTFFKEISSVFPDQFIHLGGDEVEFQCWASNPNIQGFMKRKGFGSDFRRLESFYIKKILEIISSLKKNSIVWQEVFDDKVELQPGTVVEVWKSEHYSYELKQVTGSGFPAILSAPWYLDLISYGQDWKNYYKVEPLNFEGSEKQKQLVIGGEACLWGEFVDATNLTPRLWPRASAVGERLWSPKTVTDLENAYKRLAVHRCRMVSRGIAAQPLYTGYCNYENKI
# B1: mouse-Transferrin-G-CSF-HEXA (mTr-G-CSF-HEXA) (other)
# chain: HAIYPRHGSVPLVTVSALPPSLPLPRSFLLKSLEQVRKIQASGSVLLEQLCATYKLCHPEELVLLGHSLGIPKASLSGCSSQALQQTQCLSQLHSGLCLYQGLLQALSGISPALAPTLDLLQLDVANFATTIWQQMENLGVAPTVQPTQSAMPAFTSAFQRRAGGVLAISYLQGFLETARLALHHLAGSGSDRVYIHPFHLGSGSGGSGGSGGSGSGGSGSGGSGGSGLWPWPQYIQTYHRRYTLYPNNFQFRYHVSSAAQAGCVVLDEAFRRYRNLLFGSGSWPRPSFSNKQQTLGKNILVVSVVTAECNEFPNLESVENYTLTINDDQCLLASETVWGALRGLETFSQLVWKSAEGTFFINKTKIKDFPRFPHRGVLLDTSRHYLPLSSILDTLDVMAYNKFNVFHWHLVDDSSFPYESFTFPELTRKGSFNPVTHIYTAQDVKEVIEYARLRGIRVLAEFDTPGHTLSWGPGAPGLLTPCYSGSHLSGTFGPVNPSLNSTYDFMSTLFLEISSVFPDFYLHLGGDEVDFTCWKSNPNIQAFMKKKGFTDFKQLESFYIQTLLDIVSDYDKGYVVWQEVFDNKVKVRPDTIIQVWREEMPVEYMLEMQDITRAGFRALLSAPWYLNRVKYGPDWKDMYKVEPLAFHGTPEQKALVIGGEACMWGEYVDSTNLVPRLWPRAGAVAERLWSSNLTTNIDFAFKRLSHFRCELVRRGIQAQPISVGYCEQEFEQT
# Biological target: T1, recombinant mouse HEXB (beta-subunit of …)
# Assay: binding to a coated plate, bound protein read by HexA enzymatic activity
binder,measurement,value
B1,Kd,166 nM

# — paper PMC11357852 (Molecular Therapy. Methods & Clinical Development, 2024)
